From article PMC7117912
Ends that are not written are not given here.

Tests used:
[1] = target: H2-D^b (mouse MHC I heavy chain ectodomain) refolded with human β2-microglobulin (mouse | human); assay: fluorescence polarisation; one-step dissociation, uncatalyzed: 300 nM MHC I loaded with TAMRA-labeled peptide, 1000-fold molar excess (300 µM) of unlabeled competitor peptide, no TAPBPR; 23°C, 1xHBS; one-phase exponential decay
[2] = target: HLA-A*02:01 (human MHC I heavy chain ectodomain, amino acids 1-278) refolded with human β2-microglobulin (human); assay: fluorescence polarisation

Binder | koff [1] | koff [2]
TQSC(TAMRA)NTQSI [TQSC*NTQSI (fluorescently labeled medium-affinity peptide for H2-D^b)] | 0.00253 s⁻¹ | –
ASNC(TAMRA)NMETM [ASNC*NMETM (fluorescently labeled high-affinity peptide for H2-D^b)] | 0.0002 s⁻¹ | –
FLPSDC(TAMRA)FPSF [FLPSDC*FPSF (fluorescently labeled medium-affinity peptide for HLA-A*02:01)] | – | 0.0019 s⁻¹
